{"source": "paper PMC3498381", "about": "“Isolated Toll-like Receptor Transmembrane Domains Are Capable of Oligomerization” (PLoS ONE, 2012)", "key": {"TMD5 D150A": {"target": "TMD5 D150A", "assay": "homotypic ToxR assay", "conditions": "higher signal = more homotypic TMD association; parent: est. 1.0; read off a plot"}, "[1]": {"target": "synthetic TLR6 transmembrane domain peptide, coumarin-labelled (human)", "assay": "AUC; sedimentation equilibrium; labelled peptide in density matched C14-betaine micelles (10 mM), 100 mM HEPES pH 7.4; FITC-TLR2 read at 495 nm, coumarin-TLR6 at 400 nm; for the heterotypic run FITC-TLR2 with 2 equiv. of coumarin-TLR6; global fit"}, "[2]": {"system": "heterotypic interactions of the TLR2 TMD", "assay": "Heterotypic ToxR assay of TLR2 point mutants", "format": "cell-based, E. coli", "conditions": "compared with native TLR2 TMD (Fig. 7B)", "text": "To investigate if these residues were involved in the homotypic or heterotypic interactions we performed site-directed mutagenesis at key positions in the TLR2 TMD – Gly593Val, Ala597Val, and Cys609Ile – and tested these mutants in both homotypic and heterotypic ToxR assays.\nFigure 7 Toll-like Receptor 2 Interaction Interface Studied by Mutagenesis. TLR2 residues were mutated to study effects on homotypic and heterotypic interactions using the ToxR assay. These mutations were at positions identified in the sequence as likely interaction locations. (A) Homotypic interactions of point mutations show no difference in interaction potential from wild-type TLR2 TMD. (B) Heterotypic interactions of point mutations show the potential importance of both the Ala597 and Cys609 positions for heterotypic interactions. […]\nFor heterotypic interactions one plasmid containing a functional ToxR domain (200 ng) and a second plasmid containing a non-functional ToxR* domain (200 ng) were co-transformed into chemically competent FHK12 E. coli (400 µL) by incubating on ice for 30 min, heat shock at 42°C for 90 s, incubation on ice for 2 min, and addition of SOC media (1600 µL) followed by incubation with shaking for 1 h at 37°C. […] Analysis of activity was monitored as described in homotypic ToxR assays. […]"}, "[3]": {"system": "homotypic TMD-TMD interaction (ToxR / ctx promoter / β-galactosidase reporter in FHK12 E. coli)", "assay": "Homotypic ToxR reporter assay (β-galactosidase)", "format": "cell-based", "conditions": "homotypic ToxR assay, compared with wild type TLR2 TMD (Fig. 7A)", "method": ". Various plasmid constructs for this assay make it possible to monitor both homotypic and heterotypic interactions that are driven by TMD-TMD association (Fig. S1).\nWe first investigated homotypic interactions because the majority of the TLR family members function as homodimers. […] This ΔTM construct consists of the same maltose binding protein and ToxR domain, but lacks a TMD for proper membrane insertion (Fig. S2). Statistical analysis using the Tukey-Kramer test was performed to analyze any significant differences between all possible pairs of average interaction potentials (Table S2). […] Among the TLRs, no discernable differences in grouping based on statistical analysis at p = 0.05 were indicated as all receptors belonged to multiple groups, except for TLR1, which with the lowest interaction potential among the family of receptors only existed in one group (Table S1).\nFigure 2 Toll-like Receptor Transmembrane Domain Homotypic Interactions. (A) The ToxR assay was used to study homotypic interactions of the TLR TMDs. A chimeric protein expressing the TMD of interest was monitored through β-galactosidase activity. In all cases, we saw that the TLRs have interaction potential solely from TMD-TMD interactions. Each TLR TMD interaction measurement analysis was performed on 3 technical replicates with >6 measurements for each replicate. Error bars depict the standard error of the mean (n – Table S1). Western blots staining for MBP were performed to monitor expression levels of the constructs – (B) chimeric maltose binding protein expression, (C) endogenous maltose binding protein expression. All samples were normalized to the GpA signal and expression levels.\nBriefly, the ToxR plasmids containing the TMD of interest (200 ng) were transformed into chemically competent FHK12 E. coli (200 µL) by incubating on ice for 30 min, heat shock at 42°C for 90 s, incubation on ice for 2 min, and addition of SOC media (800 µL) followed by incubation with shaking for 1 h at 37°C. This transformation mixture (50 µL) was then spread on LB agar plates containing cholaramphenicol (30 µg/mL) and ampicillin (100 µg/mL) and grown overnight at 37°C. Single colonies were selected from the plates in triplicate and added to 5 mL of LB media containing cholaramphenicol (30 µg/mL), ampicillin (100 µg/mL), and arabinose (0.0025%). These cultures were incubated overnight (16–20 h) with shaking at 37°C. The β-galactosidase activity was monitored using a Beckman Coulter DTX 880 plate-reader. First 5 µL of each culture was plated >6 times in a clear 96-well flat bottom culture plate (Sarstedt) containing 100 µL of Z-buffer/chloroform (1% β-mercaptoethanol, 10% chloroform, 89% Z buffer: […], 10 mM potassium chloride, 1 mM magnesium sulfate, pH 7.0). The cell densities of each well were recorded by measuring the OD595. Bacteria were lysed by the addition of 50 µL Z-buffer/SDS (1.6% sodium dodecyl sulfate w/v in Z-buffer) and shaking at 28°C for 10 min. Enzymatic activity was measured by adding 50 µL of Z-buffer/ortho-Nitrophenyl-β-[…] (ONPG) (0.4% ONPG w/v in Z-buffer) and monitoring the reaction at 405 nm for a period of 20 min at 30 s intervals. Miller units were calculated using the equation: [drawing 1]\nWestern blotting was performed with antiserum recognizing the maltose-binding protein moiety of the constructs (Abcam). Data were normalized to GpA Miller Units and protein expression levels using ImageJ (NIH) as reported previously."}, "TLR2 G593A": {"target": "TLR2 G593A", "assay": "homotypic ToxR assay", "conditions": "higher signal = more homotypic TMD association; parent: est. 1.0; read off a plot"}, "[4]": {"target": "synthetic TLR2 transmembrane domain peptide, fluorescein-labelled (human)", "assay": "AUC; sedimentation equilibrium; labelled peptide in density matched C14-betaine micelles (10 mM), 100 mM HEPES pH 7.4; FITC-TLR2 read at 495 nm, coumarin-TLR6 at 400 nm; for the heterotypic run FITC-TLR2 with 2 equiv. of coumarin-TLR6; global fit"}, "[5]": {"target": "synthetic TLR6 transmembrane domain peptide, coumarin-labelled (human)", "assay": "FRET or BRET; coumarin-TLR1 or -TLR6 peptide (donor) fixed at 20 nM, fluorescein-TLR2 peptide (acceptor) titrated 0-1500 nM; 1 mM C14-betaine micelles, 100 mM HEPES pH 7.4; excitation 415 nm; Hill equation"}, "[6]": {"target": "synthetic TLR1 transmembrane domain peptide, coumarin-labelled (human)", "assay": "FRET or BRET; coumarin-TLR1 or -TLR6 peptide (donor) fixed at 20 nM, fluorescein-TLR2 peptide (acceptor) titrated 0-1500 nM; 1 mM C14-betaine micelles, 100 mM HEPES pH 7.4; excitation 415 nm; Hill equation"}, "[7]": {"target": "T1, TLR2 transmembrane domain A597V (ToxR chimera), O60603", "T1 chain": "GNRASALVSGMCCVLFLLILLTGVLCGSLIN", "assay": "homotypic ToxR assay", "conditions": "chain shown with the change; higher signal = more homotypic TMD association; parent: est. 1.0; read off a plot"}, "[8]": {"target": "T2, TLR5 transmembrane domain (ToxR chimera)", "T2 chain": "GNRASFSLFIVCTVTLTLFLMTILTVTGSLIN", "assay": "heterotypic ToxR assay", "conditions": "chain shown with the change; competitor TLR5* (nonfunctional ToxR* chimera); PolyLeu* = 1.0; lower signal = more ToxR inhibition = more interaction; parent: est. 0.53; read off a plot"}, "[9]": {"target": "T3, TLR1 transmembrane domain (ToxR chimera)", "T3 chain": "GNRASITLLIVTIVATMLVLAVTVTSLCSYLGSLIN", "assay": "heterotypic ToxR assay", "conditions": "chain shown with the change; competitor TLR1* (nonfunctional ToxR* chimera); PolyLeu* = 1.0; lower signal = more ToxR inhibition = more interaction; parent: est. 0.47; read off a plot"}, "[10]": {"target": "T4, TLR10 transmembrane domain (ToxR chimera)", "T4 chain": "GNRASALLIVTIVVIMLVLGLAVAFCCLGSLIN", "assay": "heterotypic ToxR assay", "conditions": "chain shown with the change; competitor TLR10* (nonfunctional ToxR* chimera); PolyLeu* = 1.0; lower signal = more ToxR inhibition = more interaction; parent: est. 0.41; read off a plot"}, "[11]": {"target": "T5, TLR4 transmembrane domain (ToxR chimera)", "T5 chain": "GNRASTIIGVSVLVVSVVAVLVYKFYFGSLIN", "assay": "heterotypic ToxR assay", "conditions": "chain shown with the change; competitor TLR4* (nonfunctional ToxR* chimera); PolyLeu* = 1.0; lower signal = more ToxR inhibition = more interaction; parent: est. 0.90; read off a plot"}, "[12]": {"target": "T6, TLR6 transmembrane domain (ToxR chimera)", "T6 chain": "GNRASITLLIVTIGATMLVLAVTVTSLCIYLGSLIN", "assay": "heterotypic ToxR assay", "conditions": "chain shown with the change; competitor TLR6* (nonfunctional ToxR* chimera); PolyLeu* = 1.0; lower signal = more ToxR inhibition = more interaction; parent: est. 0.24; read off a plot"}, "[13]": {"target": "T7, TLR2 transmembrane domain (ToxR chimera)", "T7 chain": "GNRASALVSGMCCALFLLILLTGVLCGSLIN", "assay": "heterotypic ToxR assay", "conditions": "chain shown with the change; competitor TLR2* (nonfunctional ToxR* chimera); PolyLeu* = 1.0; lower signal = more ToxR inhibition = more interaction; parent: est. 0.42; read off a plot"}, "[14]": {"target": "T8, TLR2 transmembrane domain C609I (ToxR chimera), O60603", "T8 chain": "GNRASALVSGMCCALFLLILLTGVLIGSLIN", "assay": "homotypic ToxR assay", "conditions": "chain shown with the change; higher signal = more homotypic TMD association; parent: est. 1.0; read off a plot"}}, "note": "“And” between values parts separate entries of the source, which are not always exact repeats. Equal entries are not always repeated. No end group written: not given here.", "data": [{"molecule": "TMD5 from latent membrane protein 1 (ToxR* chimera) D150A", "values": [{"measurement": "response (normalized Miller units)", "setting": "TMD5 D150A", "result": 0.59}]}, {"molecule": "synthetic TLR6 transmembrane domain peptide, coumarin-labelled", "values": [{"measurement": "stoichiometry N", "setting": "[1]", "result": 2}]}, {"molecule": "TLR2 A597V: TLR2 TMD ToxR construct with point mutation Ala597Val (GNRASALVSGMCCVLFLLILLTGVLCGSLIN; cysteine pairing not given here; also: fused to ToxR activation domain and maltose binding protein, ends not given here)", "values": [{"measurement": "Effect of TLR2 point mutation on heterotypic interactions", "setting": "[2]", "result": "capable of reducing the ToxR inhibition demonstrated by the native TLR2 TMD"}, {"measurement": "Effect of TLR2 point mutation on homotypic interaction", "setting": "[3]", "result": "no mutation demonstrated significant difference from the wild type TLR2 TMD"}]}, {"molecule": "TLR2 transmembrane domain (ToxR chimera) G593A", "values": [{"measurement": "response (normalized Miller units)", "setting": "TLR2 G593A", "result": 1.1}]}, {"molecule": "synthetic TLR2 transmembrane domain peptide, fluorescein-labelled", "values": [{"measurement": "stoichiometry N", "setting": "[4]", "result": "2 and 4"}, {"measurement": "Kd", "setting": "[5]", "result": 286, "unit": "nM"}, {"measurement": "Kd", "setting": "[6]", "result": 231, "unit": "nM"}]}, {"molecule": "TLR2 C609I: TLR2 TMD ToxR construct with point mutation Cys609Ile (GNRASALVSGMCCALFLLILLTGVLIGSLIN; cysteine pairing not given here; also: fused to ToxR activation domain and maltose binding protein, ends not given here)", "values": [{"measurement": "Effect of TLR2 point mutation on heterotypic interactions", "setting": "[2]", "result": "capable of reducing the ToxR inhibition demonstrated by the native TLR2 TMD"}, {"measurement": "Effect of TLR2 point mutation on homotypic interaction", "setting": "[3]", "result": "no mutation demonstrated significant difference from the wild type TLR2 TMD"}]}, {"molecule": "GNRASALVSGMCCVLFLLILLTGVLCGSLIN", "note": "[TLR2 transmembrane domain (ToxR chimera) A597V]", "values": [{"measurement": "response (normalized Miller units)", "setting": "[7]", "result": 1}, {"measurement": "response (normalized Miller units)", "setting": "[8]", "result": 1}, {"measurement": "response (normalized Miller units)", "setting": "[9]", "result": 1}, {"measurement": "response (normalized Miller units)", "setting": "[10]", "result": 1.2}, {"measurement": "response (normalized Miller units)", "setting": "[11]", "result": 1.1}, {"measurement": "response (normalized Miller units)", "setting": "[12]", "result": 0.82}, {"measurement": "response (normalized Miller units)", "setting": "[13]", "result": 0.8}]}, {"molecule": "GNRASALVSGMCCALFLLILLTGVLIGSLIN", "note": "[TLR2 transmembrane domain (ToxR chimera) C609I]", "values": [{"measurement": "response (normalized Miller units)", "setting": "[14]", "result": 1.1}, {"measurement": "response (normalized Miller units)", "setting": "[8]", "result": 0.81}, {"measurement": "response (normalized Miller units)", "setting": "[9]", "result": 0.78}, {"measurement": "response (normalized Miller units)", "setting": "[10]", "result": 0.63}, {"measurement": "response (normalized Miller units)", "setting": "[11]", "result": 0.88}, {"measurement": "response (normalized Miller units)", "setting": "[12]", "result": 0.82}, {"measurement": "response (normalized Miller units)", "setting": "[13]", "result": 0.55}]}]}
